Data published in PMC8184817, “Transmission of light signals from the light-oxygen-voltage core via the hydrophobic region of the β-sheet surface in aureochrome-1” (Scientific Reports, 2021).

Key:
[1] = target: the molecule itself; assay: SEC; light (L) state: 8 or 50 µM protein illuminated 2 min with blue light, column under continuous LED irradiation; Superdex 75, 400 mM NaCl, 20 mM Tris-HCl pH 7.0, 25 ± 1 °C, 0.5 mL/min; monomer to dimer
[2] = target: the molecule itself; assay: SEC; dark (D) state: 8 or 50 µM protein incubated 20 min at 25 °C in the dark; Superdex 75 column, 400 mM NaCl, 20 mM Tris-HCl pH 7.0, 25 ± 1 °C, 0.5 mL/min; monomer to dimer
[3] = target: the molecule itself; assay: dynamic light scattering (DLS); light (L) state: immediately after 1 min of blue light, 30-60 µM protein, 25 °C, hydrodynamic radius extrapolated to 0 µM protein; monomer to dimer
[4] = target: the molecule itself; assay: dynamic light scattering (DLS); dark (D) state: 30-60 µM protein, 25 °C, hydrodynamic radius extrapolated to 0 µM protein; monomer to dimer

B1: Photozipper (PZ), N-terminally truncated aureochrome-1 of Vaucheria frigida, wild type (domain or fragment, UniProt A8QW55 113-348, looked up)
chain: GSISSELTEAQKVERRERNREHAKRSRVRKKFLLESLQQSVNELNHENNSLKESIREHLGPRGDSLIAQSSPEADTLLTDNPSKANRILEDPDYSLVKALQMAQQNFVITDASLPDNPIVYASRGFLTLTGYSLDQILGRNCRFLQGPETDPRAVDKIRNAITKGVDTSVCLLNYRQDGTTFWNLFFVAGLRDSKGNIVNYVGVQSKVSEDYAKLLVNEQNIEYKGVRTSNMLRRK
notes: aureochrome-1 of Vaucheria frigida (VfAUREO1), G113-K348 with C162S and C182S, encoded by the synthetic gene opZL; holds the bZIP and LOV domains; in the light (L) state FMN forms a covalent adduct with a conserved cysteine; also called wtPZ; source: recombinant protein
Does B1 bind [1]?
Result: binds

B2: Photozipper (PZ) F219V mutant (domain or fragment, Vaucheria frigida, UniProt A8QW55 113-348, looked up)
chain: GSISSELTEAQKVERRERNREHAKRSRVRKKFLLESLQQSVNELNHENNSLKESIREHLGPRGDSLIAQSSPEADTLLTDNPSKANRILEDPDYSLVKALQMAQQNVVITDASLPDNPIVYASRGFLTLTGYSLDQILGRNCRFLQGPETDPRAVDKIRNAITKGVDTSVCLLNYRQDGTTFWNLFFVAGLRDSKGNIVNYVGVQSKVSEDYAKLLVNEQNIEYKGVRTSNMLRRK
notes: aureochrome-1 of Vaucheria frigida (VfAUREO1), G113-K348 with C162S and C182S (opZL gene), plus F219V; also called β-sheet mutant
With B2 as the protein, how does the “stoichiometry N” value [2] read?
Its value is 2.

B3: Photozipper (PZ) L208A mutant (domain or fragment, Vaucheria frigida, UniProt A8QW55 113-348, looked up)
chain: GSISSELTEAQKVERRERNREHAKRSRVRKKFLLESLQQSVNELNHENNSLKESIREHLGPRGDSLIAQSSPEADTLLTDNPSKANRILEDPDYSAVKALQMAQQNFVITDASLPDNPIVYASRGFLTLTGYSLDQILGRNCRFLQGPETDPRAVDKIRNAITKGVDTSVCLLNYRQDGTTFWNLFFVAGLRDSKGNIVNYVGVQSKVSEDYAKLLVNEQNIEYKGVRTSNMLRRK
notes: aureochrome-1 of Vaucheria frigida (VfAUREO1), G113-K348 with C162S and C182S (opZL gene), plus L208A; also called L208L (as printed once); A'α mutant
Does B3 bind [2]?
Result: binds

B4: Photozipper (PZ) F299V mutant (domain or fragment, Vaucheria frigida, UniProt A8QW55 113-348, looked up)
chain: GSISSELTEAQKVERRERNREHAKRSRVRKKFLLESLQQSVNELNHENNSLKESIREHLGPRGDSLIAQSSPEADTLLTDNPSKANRILEDPDYSLVKALQMAQQNFVITDASLPDNPIVYASRGFLTLTGYSLDQILGRNCRFLQGPETDPRAVDKIRNAITKGVDTSVCLLNYRQDGTTFWNLFVVAGLRDSKGNIVNYVGVQSKVSEDYAKLLVNEQNIEYKGVRTSNMLRRK
notes: aureochrome-1 of Vaucheria frigida (VfAUREO1), G113-K348 with C162S and C182S (opZL gene), plus F299V; also called β-sheet mutant
Does B4 bind [3]?
Result: binds

B5: Photozipper (PZ) V316A mutant (domain or fragment, Vaucheria frigida, UniProt A8QW55 113-348, looked up)
chain: GSISSELTEAQKVERRERNREHAKRSRVRKKFLLESLQQSVNELNHENNSLKESIREHLGPRGDSLIAQSSPEADTLLTDNPSKANRILEDPDYSLVKALQMAQQNFVITDASLPDNPIVYASRGFLTLTGYSLDQILGRNCRFLQGPETDPRAVDKIRNAITKGVDTSVCLLNYRQDGTTFWNLFFVAGLRDSKGNIVNYVGAQSKVSEDYAKLLVNEQNIEYKGVRTSNMLRRK
notes: aureochrome-1 of Vaucheria frigida (VfAUREO1), G113-K348 with C162S and C182S (opZL gene), plus V316A; also called β-sheet mutant
Does B5 bind [2]?
Result: binds

B6: Photozipper (PZ) V314I mutant (domain or fragment, Vaucheria frigida, UniProt A8QW55 113-348, looked up)
chain: GSISSELTEAQKVERRERNREHAKRSRVRKKFLLESLQQSVNELNHENNSLKESIREHLGPRGDSLIAQSSPEADTLLTDNPSKANRILEDPDYSLVKALQMAQQNFVITDASLPDNPIVYASRGFLTLTGYSLDQILGRNCRFLQGPETDPRAVDKIRNAITKGVDTSVCLLNYRQDGTTFWNLFFVAGLRDSKGNIVNYIGVQSKVSEDYAKLLVNEQNIEYKGVRTSNMLRRK
notes: aureochrome-1 of Vaucheria frigida (VfAUREO1), G113-K348 with C162S and C182S (opZL gene), plus V314I; also called β-sheet mutant
With B6 as the protein, how does the “stoichiometry N” value [2] read?
Its value is 2.

B7: Photozipper (PZ) V314A mutant (domain or fragment, Vaucheria frigida, UniProt A8QW55 113-348, looked up)
chain: GSISSELTEAQKVERRERNREHAKRSRVRKKFLLESLQQSVNELNHENNSLKESIREHLGPRGDSLIAQSSPEADTLLTDNPSKANRILEDPDYSLVKALQMAQQNFVITDASLPDNPIVYASRGFLTLTGYSLDQILGRNCRFLQGPETDPRAVDKIRNAITKGVDTSVCLLNYRQDGTTFWNLFFVAGLRDSKGNIVNYAGVQSKVSEDYAKLLVNEQNIEYKGVRTSNMLRRK
notes: aureochrome-1 of Vaucheria frigida (VfAUREO1), G113-K348 with C162S and C182S (opZL gene), plus V314A; also called β-sheet mutant
Does B7 bind [1]?
Result: binds

B8: Photozipper (PZ) Q216A mutant (domain or fragment, Vaucheria frigida, UniProt A8QW55 113-348, looked up)
chain: GSISSELTEAQKVERRERNREHAKRSRVRKKFLLESLQQSVNELNHENNSLKESIREHLGPRGDSLIAQSSPEADTLLTDNPSKANRILEDPDYSLVKALQMAAQNFVITDASLPDNPIVYASRGFLTLTGYSLDQILGRNCRFLQGPETDPRAVDKIRNAITKGVDTSVCLLNYRQDGTTFWNLFFVAGLRDSKGNIVNYVGVQSKVSEDYAKLLVNEQNIEYKGVRTSNMLRRK
notes: aureochrome-1 of Vaucheria frigida (VfAUREO1), G113-K348 with C162S and C182S (opZL gene), plus Q216A; also called hinge mutant
Does B8 bind [3]?
Result: binds

B9: Photozipper (PZ) Q217A mutant (domain or fragment, Vaucheria frigida, UniProt A8QW55 113-348, looked up)
chain: GSISSELTEAQKVERRERNREHAKRSRVRKKFLLESLQQSVNELNHENNSLKESIREHLGPRGDSLIAQSSPEADTLLTDNPSKANRILEDPDYSLVKALQMAQANFVITDASLPDNPIVYASRGFLTLTGYSLDQILGRNCRFLQGPETDPRAVDKIRNAITKGVDTSVCLLNYRQDGTTFWNLFFVAGLRDSKGNIVNYVGVQSKVSEDYAKLLVNEQNIEYKGVRTSNMLRRK
notes: aureochrome-1 of Vaucheria frigida (VfAUREO1), G113-K348 with C162S and C182S (opZL gene), plus Q217A; also called hinge mutant
Does B9 bind [3]?
Result: binds

B10: Photozipper (PZ) L212A mutant (domain or fragment, Vaucheria frigida, UniProt A8QW55 113-348, looked up)
chain: GSISSELTEAQKVERRERNREHAKRSRVRKKFLLESLQQSVNELNHENNSLKESIREHLGPRGDSLIAQSSPEADTLLTDNPSKANRILEDPDYSLVKAAQMAQQNFVITDASLPDNPIVYASRGFLTLTGYSLDQILGRNCRFLQGPETDPRAVDKIRNAITKGVDTSVCLLNYRQDGTTFWNLFFVAGLRDSKGNIVNYVGVQSKVSEDYAKLLVNEQNIEYKGVRTSNMLRRK
notes: aureochrome-1 of Vaucheria frigida (VfAUREO1), G113-K348 with C162S and C182S (opZL gene), plus L212A; also called A'α mutant
Does B10 bind [4]?
Result: binds

B11: Photozipper (PZ) L201A mutant (domain or fragment, Vaucheria frigida, UniProt A8QW55 113-348, looked up)
chain: GSISSELTEAQKVERRERNREHAKRSRVRKKFLLESLQQSVNELNHENNSLKESIREHLGPRGDSLIAQSSPEADTLLTDNPSKANRIAEDPDYSLVKALQMAQQNFVITDASLPDNPIVYASRGFLTLTGYSLDQILGRNCRFLQGPETDPRAVDKIRNAITKGVDTSVCLLNYRQDGTTFWNLFFVAGLRDSKGNIVNYVGVQSKVSEDYAKLLVNEQNIEYKGVRTSNMLRRK
notes: aureochrome-1 of Vaucheria frigida (VfAUREO1), G113-K348 with C162S and C182S (opZL gene), plus L201A; also called A'α mutant
Does B11 bind [2]?
Result: binds

B12: Photozipper (PZ) L201A/L208A/L212A triple mutant (domain or fragment, Vaucheria frigida, UniProt A8QW55 113-348, looked up)
chain: GSISSELTEAQKVERRERNREHAKRSRVRKKFLLESLQQSVNELNHENNSLKESIREHLGPRGDSLIAQSSPEADTLLTDNPSKANRIAEDPDYSAVKAAQMAQQNFVITDASLPDNPIVYASRGFLTLTGYSLDQILGRNCRFLQGPETDPRAVDKIRNAITKGVDTSVCLLNYRQDGTTFWNLFFVAGLRDSKGNIVNYVGVQSKVSEDYAKLLVNEQNIEYKGVRTSNMLRRK
notes: aureochrome-1 of Vaucheria frigida (VfAUREO1), G113-K348 with C162S and C182S (opZL gene), plus L201A, L208A and L212A; also called A'α mutant
Does B12 bind [2]?
Result: binds

B13: Photozipper (PZ) L303A mutant (domain or fragment, Vaucheria frigida, UniProt A8QW55 113-348, looked up)
chain: GSISSELTEAQKVERRERNREHAKRSRVRKKFLLESLQQSVNELNHENNSLKESIREHLGPRGDSLIAQSSPEADTLLTDNPSKANRILEDPDYSLVKALQMAQQNFVITDASLPDNPIVYASRGFLTLTGYSLDQILGRNCRFLQGPETDPRAVDKIRNAITKGVDTSVCLLNYRQDGTTFWNLFFVAGARDSKGNIVNYVGVQSKVSEDYAKLLVNEQNIEYKGVRTSNMLRRK
notes: aureochrome-1 of Vaucheria frigida (VfAUREO1), G113-K348 with C162S and C182S (opZL gene), plus L303A; also called β-sheet mutant
Does B13 bind [3]?
Result: binds

B14: Photozipper (PZ) N218A mutant (domain or fragment, Vaucheria frigida, UniProt A8QW55 113-348, looked up)
chain: GSISSELTEAQKVERRERNREHAKRSRVRKKFLLESLQQSVNELNHENNSLKESIREHLGPRGDSLIAQSSPEADTLLTDNPSKANRILEDPDYSLVKALQMAQQAFVITDASLPDNPIVYASRGFLTLTGYSLDQILGRNCRFLQGPETDPRAVDKIRNAITKGVDTSVCLLNYRQDGTTFWNLFFVAGLRDSKGNIVNYVGVQSKVSEDYAKLLVNEQNIEYKGVRTSNMLRRK
notes: aureochrome-1 of Vaucheria frigida (VfAUREO1), G113-K348 with C162S and C182S (opZL gene), plus N218A; also called hinge mutant
Does B14 bind [3]?
Result: binds
